In patent US5891439:

Target: mouse CD8 (mouse) (UniProt P01731)
Assay: cell ELISA on dried mouse thymocytes containing CD8+ cells, detection with biotinylated MO3

Substance: native trypanosome-derived lymphocyte triggering factor (TLTF), antibody affinity purified (ligand)
- dilution of TLTF down to which a signal above background was obtained: 0.001 dilution
